Results reported in paper PMC12487888, “Molecular basis of the biogenesis of a protein organelle for ethanolamine utilization” (Science Advances, 2025).

B2: EutL-strep (natural protein, S. Typhimurium LT2, UniProt P0A1C9 1-219, looked up)
chain: MPALDLIRPSVTAMRVIASVNDGFARELKLPPHIRSLGLITADSDDVTYIAADEATKQAMVEVVYGRSLYAGAAHGPSPTAGEVLIMLGGPNPAEVRAGLDAMVASIENGAAFQWANDAENTAFLAHVVSRTGSYLSSTAGIALGDPMAYLVAPPLEATFGIDAAMKSADVQLVTYVPPPSETNYSAAFLTGSQAACKAACNAFTDAVLDIARNPVQRA
notes: shell protein EutL of S. Typhimurium LT2; the eutL gene was inserted into pET-22b (+); not shown: Strep tag, C-terminal, kept

Key:
Conditions in all cases: both partners purified
[1] = target: T1, EutQ (residues 1 to 229) (S. Typhimurium LT2, UniProt Q9ZFV5 1-229); assay: ITC; 20 μM protein in the cell, 200 to 400 μM peptide in the syringe; 19 injections, 25°C; 20 mM Na2HPO4, 20 mM NaCl, pH 6.5
T1 construct: About 25 kDa per monomer, about 50 kDa dimer by SEC-MALS; Uniformly 15N-labelled for NMR; also called full-length EutQ; WT EutQ; source: E. coli BL21 (DE3) star, purified (His-trap, SEC on S200 Superdex)
T1 sequence: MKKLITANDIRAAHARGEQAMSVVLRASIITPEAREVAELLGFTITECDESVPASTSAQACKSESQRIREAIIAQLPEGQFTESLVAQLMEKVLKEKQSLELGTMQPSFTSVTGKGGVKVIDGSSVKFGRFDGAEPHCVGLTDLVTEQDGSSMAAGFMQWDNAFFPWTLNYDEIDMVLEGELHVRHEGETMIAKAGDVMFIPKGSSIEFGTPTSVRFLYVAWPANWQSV

[2] = target: T2, EutQ N-terminal domain fused with GB1 at its C terminus (EutQ^1–99-GB1) (S. Typhimurium LT2, UniProt Q9ZFV5 1-99); assay: as above
T2 construct: EutQ of S. Typhimurium LT2, N-terminal region, residues 1-99 (helices H1 to H4); Cloned into pETM11; Order of the chain: EutQ 1-99, hexahistidine tag, GB1; Uniformly 15N-labelled (15N, 13C for assignment) for NMR; also called N-terminal region of EutQ; source: E. coli BL21 (DE3) star, purified (His-trap, SEC on S200 Superdex)
T2 sequence: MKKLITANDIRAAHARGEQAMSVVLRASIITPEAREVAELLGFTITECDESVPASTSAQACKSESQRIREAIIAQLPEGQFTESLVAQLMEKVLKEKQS

[3] = target: T3, EutQ Q75A (S. Typhimurium LT2, UniProt Q9ZFV5 1-229, Q75A); assay: ITC; point mutants of EutQ against EutC^1–20 (figs. S25 and S26); the method is not given, the Kd is compared with the ITC Kd of WT EutQ
T3 construct: EutQ of S. Typhimurium LT2 with the point mutation Q75A; also called Q75A mutant
T3 sequence: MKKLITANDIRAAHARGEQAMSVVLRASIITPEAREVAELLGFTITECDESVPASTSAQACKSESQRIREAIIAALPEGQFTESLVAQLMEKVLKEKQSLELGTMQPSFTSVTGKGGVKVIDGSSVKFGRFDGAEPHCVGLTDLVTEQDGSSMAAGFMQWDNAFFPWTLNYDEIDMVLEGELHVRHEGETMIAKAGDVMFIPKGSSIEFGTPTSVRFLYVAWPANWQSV

[4] = target: T4, EutQ-his (S. Typhimurium LT2, UniProt Q9ZFV5 1-229, dye on the His tag (His-tagged target proteins were labelled with dyes)); assay: MST; His-tagged target protein labelled with dye, 0.25 μM; unlabelled strep-tagged protein in twofold dilution series (EutL up to 24 μM, EutQ up to 108 μM); Monolith NT.115, 25°C, 60% excitation power
T4 construct: EutQ of S. Typhimurium LT2; the eutQ gene was inserted into pET-22b (+); source: E. coli BL21(DE3), purified (Ni-NTA, gel filtration); not shown: His tag, C-terminal, kept
T4 sequence (looked up): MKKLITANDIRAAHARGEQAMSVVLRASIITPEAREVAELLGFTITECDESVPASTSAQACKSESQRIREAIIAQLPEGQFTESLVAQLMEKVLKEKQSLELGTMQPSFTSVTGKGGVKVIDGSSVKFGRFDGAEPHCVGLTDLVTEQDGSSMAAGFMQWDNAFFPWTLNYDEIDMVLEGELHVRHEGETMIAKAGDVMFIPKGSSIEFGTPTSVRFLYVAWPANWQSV

[5] = target: B2; assay: as above
[6] = target: T5, EutQ-strep (S. Typhimurium LT2, UniProt Q9ZFV5 1-229); assay: as above
T5 construct: EutQ of S. Typhimurium LT2; the eutQ gene was inserted into pET-22b (+); source: E. coli BL21(DE3), purified (Strep-tag XT, gel filtration); not shown: Strep tag, C-terminal, kept
T5 sequence: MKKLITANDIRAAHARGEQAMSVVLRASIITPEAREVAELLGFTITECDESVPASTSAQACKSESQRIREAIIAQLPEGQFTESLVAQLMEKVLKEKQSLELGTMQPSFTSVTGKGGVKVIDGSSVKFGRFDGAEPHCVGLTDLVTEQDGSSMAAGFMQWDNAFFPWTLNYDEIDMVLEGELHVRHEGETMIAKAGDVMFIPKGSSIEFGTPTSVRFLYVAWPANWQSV

B1: EutC^1–20 encapsulation peptide (peptide)
peptide: MDQKQIEEIVRSVMASMGQD
notes: EutC of S. Typhimurium LT2, N-terminal encapsulation peptide, residues 1-20; also called EutC peptide; EP of EutC; source: synthetic peptide (GenicBio)
Question: B1 was tested. Which Kd [1] did it give?
Answer: Its Kd is 6.35 µM.

Question: And the dH [1]?
Answer: The dH was -9.24 ± 0.01 kcal/mol.

Question: And the “stoichiometry N” value [1]?
Answer: The value was ~2.

Question: And the Kd [2]?
Answer: The Kd was 7.6 µM.

Question: What about the dH [2] of the same binder?
Answer: Its dH is -9.63 ± 0.48 kcal/mol.

Question: What about the “stoichiometry N” value [2] of the same binder?
Answer: Its value is ~1.

Question: And the Kd [3]?
Answer: Its Kd is 21.5 µM.

Question: Does B2 bind [4]?
Answer: Result: binds

B3: EutM-his (natural protein)
chain: MEALGMIETRGLVALIEASDAMVKAARVKLVGVKQIGGGLCTAMVRGDVAACKAATDAGAAAAQRIGELVSVHVIPRPHGDLEEVFPISFKGDSNI
modifications: dye on the His tag (His-tagged target proteins were labelled with dyes)
notes: shell protein EutM of S. Typhimurium LT2; the eutM gene was inserted into pET-22b (+); source: E. coli BL21(DE3), purified (Ni-NTA, gel filtration); not shown: His tag, C-terminal, kept
Question: Does B3 bind [5]?
Answer: Result: binds

Question: Does B3 bind [6]?
Answer: Result: binds
